In patent publication US20060240053:

Columns and labels:
[1] = biological target: T1, peptide substrate EFDLELIEED (SEQ ID NO: 31)
T1 chain: EFDLELIEED

[2] = biological target: peptide substrates with amino acid substitutions (among SEQ ID NO: 32, 33, 34, 35)
[3] = biological target: T2, RP3 retropepsin inhibitor Ac-Leu-Leu-Nle-aldehyde (Bachem N 1320.0005)
T2 chain: LLX

[4] = biological target: T3, corneodesmosin extracted from human stratum corneum, Q15517
T3 chain: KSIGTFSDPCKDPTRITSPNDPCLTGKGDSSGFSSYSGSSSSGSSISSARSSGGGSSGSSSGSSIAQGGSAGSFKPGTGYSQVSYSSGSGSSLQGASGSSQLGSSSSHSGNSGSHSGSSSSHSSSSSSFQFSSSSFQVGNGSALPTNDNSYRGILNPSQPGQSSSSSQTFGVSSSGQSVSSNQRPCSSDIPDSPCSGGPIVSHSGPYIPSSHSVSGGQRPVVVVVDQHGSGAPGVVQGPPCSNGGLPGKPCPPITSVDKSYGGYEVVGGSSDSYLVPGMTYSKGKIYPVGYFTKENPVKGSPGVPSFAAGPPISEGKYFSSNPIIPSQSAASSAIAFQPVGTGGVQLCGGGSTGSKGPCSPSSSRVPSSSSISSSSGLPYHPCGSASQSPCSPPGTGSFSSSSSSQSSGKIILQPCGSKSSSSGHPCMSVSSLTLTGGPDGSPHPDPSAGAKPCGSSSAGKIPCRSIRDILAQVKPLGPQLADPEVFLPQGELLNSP

[5] = biological target: T4, RP1 retropepsin inhibitor Ac-Leu-Val-Phe-aldehyde (Bachem N 1395.0005)
T4 chain: LVF

[6] = biological target: T5, RP2 retropepsin inhibitor Ac-Leu-Leu-Met-aldehyde (Bachem N 1315.0005)
T5 chain: LLM

[7] = biological target: casein substrate sold under the name Enzchek (Molecular Probes)
[8] = biological target: oxidized beta-chain of insulin (Sigma)
Sequence of oxidized beta-chain of insulin (Sigma) (chain, as listed by the source): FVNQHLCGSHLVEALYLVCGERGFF

B1: recombinant fusion protein GST-SASPase delta1-84 (SEQ ID NO: 4) (protein)
chain: MAGSGARSEEGRRQHAFVPEPFDGANVVPNLWLHSFEVINDLNHWDHITKLRFLKESLRGEALGVYNRLSPQDQGDYGTVKEALLKAFGVPGAAPSHLPKEIVFANSMGKGYYLKGKIGKVPVRFLVDSGAQVSVVHPNLWEEVTDGDLDTLQPFENVVKVANGAEMKILGVWDTAVSLGKLKLKAQFLVANASAEEAIIGTDVLQDHNAILDFEHRTCTLKGKKFRLLPVGGSLEDEFDLELIEEDPSSEEGRQELSH
- hydrolysis of quenched peptide substrate (fluorescence 340/450 nm) [1]: the natural (wt) peptide is effectively hydrolyzed by the SASPase
- hydrolysis of quenched peptide substrate (fluorescence 340/450 nm) [2]: amino acid substitutions in the sequence of this peptide can generate substrates for which the SASPase has greater affinity
- autocleavage in acetate buffer pH 4.5, SDS-PAGE over time: A decrease in the whole form GST-SASPase C27 is observed over time, which demonstrates an autocleavage and, consequently, an autoactivation

B2: activated SASPase (SEQ ID NO: 6) (protein)
chain: ANSMGKGYYLKGKIGKVPVRFLVDSGAQVSVVHPNLWEEVTDGDLDTLQPFENVVKVANGAEMKILGVWDTAVSLGKLKLKAQFLVANASAEEAIIGTDVLQDHNAILDFEHRTCTLKGKKFRLLPVGGSLEDEFDLE
- kinetics for casein hydrolysis (fluorescence 485/535 nm) [3]: the kinetics for casein hydrolysis, in the presence of the RP3 retropepsin inhibitor, are significantly higher than those obtained under the control conditions
- % Residual corneodesmosin T24 h/T0*100 [4]: 75%
- kinetics for casein hydrolysis (fluorescence 485/535 nm) [5]: the kinetics for casein hydrolysis, in the presence of the RP1 and RP2 retropepsin inhibitors, are lower than the control
- kinetics for casein hydrolysis (fluorescence 485/535 nm) [6]: the kinetics for casein hydrolysis, in the presence of the RP1 and RP2 retropepsin inhibitors, are lower than the control
- caseinolytic activity [7]: Its caseinolytic activity was, moreover, demonstrated (results not shown)
- hydrolysis of the substrate followed by HPLC [8]: These results show that the activated SASPase is capable of degrading insulin
